# Article PMC8202330 (2021)
# B1: MYC-SCOC (isoform 3) WT [human] / GFP-GABARAP [not stated] (parent complex)
# chain 1: MDGSRKEEEEDSTFTNISLADDIDHSSRILYPRPKSLLPKMMNADMDVDAENQVELEEKTRLINQVLELQHTLEDLSARVDAVKEENLKLKSENQVLGQYIENLMSASSVFQTTDTKSKRK
# chain 2: MKFVYKEEHPFEKRRSEGEKIRKKYPDRVPVIVEKAPKARIGDLDKKKYLVPSDLTVGQFYFLIRKRIHLRAEDALFFFVNNVIPPTSATMGQLYQEHHEEDFFLYIAYSDESVYGL
# Variants of: B1
# Assay: GFP-Trap immunoprecipitation, Western blot quantification; HEK293A lysates mixed prior to IP; mean ± s.d.; n = 3; read off a plot
row,Variant,response [% binding]
1,"chain 1 S12E, chain 1 T15E",~63
2,chain 1 S18E,~18
3,"chain 1 S12E, chain 1 T13E, chain 1 T15E, chain 1 S18E",~100
